Values of other authors, collected in paper PMC10570509.

Biological target: OSMRβ (Homo sapiens) (UniProt Q99650)
UniProt Q99650, sequence (Q99650 28-740): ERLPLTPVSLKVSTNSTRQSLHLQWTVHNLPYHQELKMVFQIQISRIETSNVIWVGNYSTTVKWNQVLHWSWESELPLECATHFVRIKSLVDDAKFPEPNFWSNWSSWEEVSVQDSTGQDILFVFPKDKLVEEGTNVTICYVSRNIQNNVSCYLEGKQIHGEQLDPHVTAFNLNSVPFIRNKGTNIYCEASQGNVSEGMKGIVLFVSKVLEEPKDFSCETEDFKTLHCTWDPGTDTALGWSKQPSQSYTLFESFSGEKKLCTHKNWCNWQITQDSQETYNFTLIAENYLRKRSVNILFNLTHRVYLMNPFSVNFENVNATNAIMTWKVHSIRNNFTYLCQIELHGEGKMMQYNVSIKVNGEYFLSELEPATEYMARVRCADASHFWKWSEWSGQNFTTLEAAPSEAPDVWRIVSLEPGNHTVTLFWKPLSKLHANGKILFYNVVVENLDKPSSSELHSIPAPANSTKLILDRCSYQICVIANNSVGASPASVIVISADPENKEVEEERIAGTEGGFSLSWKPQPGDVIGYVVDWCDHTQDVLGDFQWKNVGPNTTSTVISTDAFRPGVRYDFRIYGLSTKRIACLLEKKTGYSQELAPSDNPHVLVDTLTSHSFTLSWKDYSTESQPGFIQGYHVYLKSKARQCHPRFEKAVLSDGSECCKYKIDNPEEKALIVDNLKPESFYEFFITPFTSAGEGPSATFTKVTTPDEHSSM

Kd: 150 pM
Substance: Oncostatin M (from UniProt P13725)
